Target: Cdc42, endogenous in human mammary epithelial cells (human (endogenous in MCF10A and HMEC)) (UniProt P60953)
Experiment: pull-down

Sequence of UniProt P60953 (P60953 whole entry): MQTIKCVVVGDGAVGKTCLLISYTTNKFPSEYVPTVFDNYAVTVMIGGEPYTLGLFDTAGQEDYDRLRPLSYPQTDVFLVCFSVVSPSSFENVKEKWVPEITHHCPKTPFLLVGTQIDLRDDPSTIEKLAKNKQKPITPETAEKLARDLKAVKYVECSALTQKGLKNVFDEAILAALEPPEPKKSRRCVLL

Substance	percent decrease of the pull-down relative to TβRIII [%]
TβRIII-T841A (β-arrestin2 binding deficient) (from UniProt Q03167 21-851) (receptor)	70
TβRIIIΔCyto (TβRIII lacking cytoplasmic domain) (domain or fragment)	60

Source: publication PMC4082962
